Measured values from patent US20220119534A1 (DRAGONFLY THERAPEUTICS, published 2022).
Values joined by “and” are separate entries in the source; they are usually repeats but may differ in a detail not shown here. Identical values can stand only once. Each block holds one binder with its values, some of them ahead of it.

Tests used:
mFc-hNKG2D [1] = molecular target: T1, mFc-hNKG2D (human, UniProt P26718 73-216); experiment: SPR Biacore 8K 37 C; mFc-hNKG2D captured on anti-mFc chip, TriNKET as analyte; 1:1 kinetic fit; average of 4
T1 construct: extracellular domain; Made in house (Dragonfly Tx); the order of tag and ECD follows the name mFc-hNKG2D; also called mFc-tagged human NKG2D; not shown: mouse Fc tag
T1 sequence (looked up): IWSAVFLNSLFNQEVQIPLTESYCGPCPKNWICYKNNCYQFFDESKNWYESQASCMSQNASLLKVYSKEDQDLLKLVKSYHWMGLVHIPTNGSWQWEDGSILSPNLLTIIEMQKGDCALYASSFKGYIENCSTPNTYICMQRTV

mFc-hNKG2D [2] = molecular target: T1, mFc-hNKG2D; experiment: SPR Biacore 8K 37 C; mFc-hNKG2D captured on anti-mFc chip, TriNKET as analyte; steady state affinity fit
Procedure: Association was monitored for 60 seconds, and dissociation was monitored for 60 seconds. Surfaces were regenerated between cycles with three pulses of 10 mM glycine-HCl (pH 1.7) injected for 20 seconds at 100 μL/min.
Two different fits were utilized to obtain the equilibrium affinity data: steady state affinity fit and kinetic fit.

[3] = molecular target: T2, Human CD16a V158 (FcγRIIIa V158) (human, UniProt P08637 17-208, biotinylated (site not stated)); experiment: SPR; biotinylated CD16a V158 captured on SA chip, TriNKET as analyte; 1:1 kinetic fit; after low pH hold, n=3
T2 construct: V158 is the allele name in mature numbering; also called hCD16aV; hCD16a V158
T2 sequence (P08637 17-208 F176V limits assumed): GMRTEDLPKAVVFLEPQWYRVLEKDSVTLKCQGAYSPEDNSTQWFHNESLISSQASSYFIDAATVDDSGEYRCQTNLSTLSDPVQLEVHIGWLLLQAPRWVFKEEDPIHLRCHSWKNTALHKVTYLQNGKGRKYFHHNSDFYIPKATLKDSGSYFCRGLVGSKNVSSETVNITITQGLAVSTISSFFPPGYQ

mFc-hNKG2D [4] = molecular target: T1, mFc-hNKG2D; experiment: SPR Biacore 8K 37 C; mFc-hNKG2D captured on anti-mFc chip, TriNKET as analyte; steady state fit; after 4 wks 40 C in phosphate/citrate/NaCl pH 7.8, n=2
Procedure: (§1) Association was monitored for 60 seconds and dissociation was monitored for 60 seconds. Surfaces were regenerated between cycles with three pulses of 10 mM glycine-HCl, pH 1.7 injected for 20 seconds at 100 μL/min. HBS-EP+ (1×) buffer was used throughout the experiment. Data were analyzed using Biacore 8K Insight evaluation software (GE Healthcare).

mFc-hNKG2D [5] = molecular target: T1, mFc-hNKG2D; experiment: SPR Biacore 8K 37 C; mFc-hNKG2D captured on anti-mFc chip, TriNKET as analyte; 1:1 kinetic fit; pH 5.0 control
Procedure: as §1

Human CLEC12A-His = molecular target: T3, Human CLEC12A-His (human, UniProt Q5QGZ9 65-265); experiment: SPR; sample after 4 weeks at 40 C in CST pH 7.0
T3 construct: Recombinant soluble protein made in house; also called hCLEC12A-His; hCLEC12A; not shown: His tag
T3 sequence: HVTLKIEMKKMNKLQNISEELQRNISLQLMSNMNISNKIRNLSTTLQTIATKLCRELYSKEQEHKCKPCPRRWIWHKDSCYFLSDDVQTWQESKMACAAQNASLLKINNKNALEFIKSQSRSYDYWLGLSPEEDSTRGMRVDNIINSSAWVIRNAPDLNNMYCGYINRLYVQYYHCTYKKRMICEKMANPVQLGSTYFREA

HER2 = experiment: SPR specificity test
BCMA = molecular target: T4, BCMA; experiment: SPR specificity test
T4 chain: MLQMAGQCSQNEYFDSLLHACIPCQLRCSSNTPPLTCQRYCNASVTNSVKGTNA

[6] = molecular target: T5, recombinant human CD16a F158 (human, UniProt P08637 17-208); experiment: SPR 25C
T5 construct: also called FcγRIIIa F158
T5 sequence (P08637 17-208 limits assumed): as the sequence (P08637 17-208 F176V limits assumed) above, with V160F counted along it

[7] = molecular target: T6, recombinant human CD16a V158 (human, UniProt P08637 17-208, biotinylated); experiment: SPR 25C
T6 construct: also called FcγRIIIa V158; hCD16aV
T6 sequence (P08637 17-208 F176V limits assumed): as the sequence (P08637 17-208 F176V limits assumed) above

koff (mFc-hNKG2D [1]): 0.13 s⁻¹
kon (mFc-hNKG2D [1]): 180000 M⁻¹ s⁻¹
Kd (mFc-hNKG2D [2]): 709 nM and 751 nM and 740 nM
Kd [3]: 210 nM
koff [3]: 0.0229 s⁻¹
kon [3]: 109000 M⁻¹ s⁻¹
Kd (mFc-hNKG2D [4]): 872 nM
Kd (mFc-hNKG2D [5]): 678 nM
koff (mFc-hNKG2D [5]): 0.128 s⁻¹
kon (mFc-hNKG2D [5]): 189000 M⁻¹ s⁻¹
B1: F3'-1602 TriNKET (bispecific antibody, human IgG1, kappa)
chain: QLQLQESGPGLVKPSETLSLTCTVSGFSLTNYGLHWIRQPPGKCLEWIGVIWSGGKTDYNPSLKSRVTISKDTSKNQFSLKLSSVQAADTAVYYCAKYDYDDSLDYWGQGTLVTVSSGGGGSGGGGSGGGGSGGGGSDIQMTQSPSSLSASVGDRVTITCHASQNINFWLSWYQQKPGKAPKLLIYEASNLHTGVPSRFSGSGSGTRFTLTISSLQPEDIATYYCQQSHSYPLTFGCGTKLEIKGSDKTHTCPPCPAPELLGGPSVFLFPPKPKDTLMISRTPEVTCVVVDVSHEDPEVKFNWYVDGVEVHNAKTKPREEQYNSTYRVVSVLTVLHQDWLNGKEYKCKVSNKALPAPIEKTISKAKGQPREPRVYTLPPCRDELTKNQVSLTCLVKGFYPSDIAVEWESNGQPENNYKTTPPVLVSDGSFTLYSKLTVDKSRWQQGNVFSCSVMHEALHNHYTQKSLSLSPG
heavy: EVQLVESGGGLVKPGGSLRLSCAASGFTFSSYSMNWVRQAPGKGLEWVSSISSSSSYIYYADSVKGRFTISRDNAKNSLYLQMNSLRAEDTAVYYCARGAPIGAAAGWFDPWGQGTLVTVSSASTKGPSVFPLAPSSKSTSGGTAALGCLVKDYFPEPVTVSWNSGALTSGVHTFPAVLQSSGLYSLSSVVTVPSSSLGTQTYICNVNHKPSNTKVDKKVEPKSCDKTHTCPPCPAPELLGGPSVFLFPPKPKDTLMISRTPEVTCVVVDVSHEDPEVKFNWYVDGVEVHNAKTKPREEQYNSTYRVVSVLTVLHQDWLNGKEYKCKVSNKALPAPIEKTISKAKGQPREPQVCTLPPSRDELTENQVSLTCLVKGFYPSDIAVEWESNGQPENNYKTTPPVLDSDGSFFLYSWLTVDKSRWQQGNVFSCSVMHEALHNHYTQKSLSLSPG
light: DIQMTQSPSSVSASVGDRVTITCRASQGISSWLAWYQQKPGKAPKLLIYAASSLQSGVPSRFSGSGSGTDFTLTISSLQPEDFATYYCQQGVSFPRTFGGGTKVEIKRTVAAPSVFIFPPSDEQLKSGTASVVCLLNNFYPREAKVQWKVDNALQSGNSQESVTEQDSKDSTYSLSSTLTLSKADYEKHKVYACEVTHQGLSSPVTKSFNRGEC
notes: Trispecific F3' format: CLEC12A scFv-Fc paired with NKG2D Fab-Fc; Stressed and control samples of the stability studies are the same molecule; also called AB0237

Kd (Human CLEC12A-His): 1.96 nM
koff (Human CLEC12A-His): 0.00147 s⁻¹
kon (Human CLEC12A-His): 749000 M⁻¹ s⁻¹
B2: AB0192 TriNKET (other)
chain: EVQLVESGGGVVQPGGSLRLSCAASGFTFNAFGMHWVRQAPGKCLEWVAFISSGSTSIYYANTVKGRFTISRDNSKNTLYLQMNSLRAEDTAVYYCARDGYPTGGAMDYWGQGTSVTVSSGGGGSGGGGSGGGGSGGGGSDIQMTQSPSSLSASVGDRVTITCKASQDIYNYLSWFQQKPGKAPKPLIYRANILVSGVPSRFSGSGSGQDYTFTISSLQPEDIATYYCLQFDAFPFTFGCGTKLEIKGSDKTHTCPPCPAPELLGGPSVFLFPPKPKDTLMISRTPEVTCVVVDVSHEDPEVKFNWYVDGVEVHNAKTKPREEQYNSTYRVVSVLTVLHQDWLNGKEYKCKVSNKALPAPIEKTISKAKGQPREPRVYTLPPCRDELTKNQVSLTCLVKGFYPSDIAVEWESNGQPENNYKTTPPVLVSDGSFTLYSKLTVDKSRWQQGNVFSCSVMHEALHNHYTQKSLSLSPG
heavy: EVQLVESGGGLVKPGGSLRLSCAASGFTFSSYSMNWVRQAPGKGLEWVSSISSSSSYIYYADSVKGRFTISRDNAKNSLYLQMNSLRAEDTAVYYCARGAPIGAAAGWFDPWGQGTLVTVSSASTKGPSVFPLAPSSKSTSGGTAALGCLVKDYFPEPVTVSWNSGALTSGVHTFPAVLQSSGLYSLSSVVTVPSSSLGTQTYICNVNHKPSNTKVDKKVEPKSCDKTHTCPPCPAPELLGGPSVFLFPPKPKDTLMISRTPEVTCVVVDVSHEDPEVKFNWYVDGVEVHNAKTKPREEQYNSTYRVVSVLTVLHQDWLNGKEYKCKVSNKALPAPIEKTISKAKGQPREPQVCTLPPSRDELTENQVSLTCLVKGFYPSDIAVEWESNGQPENNYKTTPPVLDSDGSFFLYSWLTVDKSRWQQGNVFSCSVMHEALHNHYTQKSLSLSPG
light: DIQMTQSPSSVSASVGDRVTITCRASQGISSWLAWYQQKPGKAPKLLIYAASSLQSGVPSRFSGSGSGTDFTLTISSLQPEDFATYYCQQGVSFPRTFGGGTKVEIKRTVAAPSVFIFPPSDEQLKSGTASVVCLLNNFYPREAKVQWKVDNALQSGNSQESVTEQDSKDSTYSLSSTLTLSKADYEKHKVYACEVTHQGLSSPVTKSFNRGEC
notes: the condition stands under assay; also called AB0192 Lot AB0192-005

binding result (HER2): no binding (tested: 500 nM)
binding result (BCMA): no binding (tested: 500 nM)
fold difference in affinity vs trastuzumab [6]: ≤ 3 fold
fold difference in affinity vs trastuzumab [7]: ≤ 3 fold
B3: F3'-1602 TriNKET (other)
chain: QLQLQESGPGLVKPSETLSLTCTVSGFSLTNYGLHWIRQPPGKCLEWIGVIWSGGKTDYNPSLKSRVTISKDTSKNQFSLKLSSVQAADTAVYYCAKYDYDDSLDYWGQGTLVTVSSGGGGSGGGGSGGGGSGGGGSDIQMTQSPSSLSASVGDRVTITCHASQNINFWLSWYQQKPGKAPKLLIYEASNLHTGVPSRFSGSGSGTRFTLTISSLQPEDIATYYCQQSHSYPLTFGCGTKLEIKGSDKTHTCPPCPAPELLGGPSVFLFPPKPKDTLMISRTPEVTCVVVDVSHEDPEVKFNWYVDGVEVHNAKTKPREEQYNSTYRVVSVLTVLHQDWLNGKEYKCKVSNKALPAPIEKTISKAKGQPREPRVYTLPPCRDELTKNQVSLTCLVKGFYPSDIAVEWESNGQPENNYKTTPPVLVSDGSFTLYSKLTVDKSRWQQGNVFSCSVMHEALHNHYTQKSLSLSPG
heavy: EVQLVESGGGLVKPGGSLRLSCAASGFTFSSYSMNWVRQAPGKGLEWVSSISSSSSYIYYADSVKGRFTISRDNAKNSLYLQMNSLRAEDTAVYYCARGAPIGAAAGWFDPWGQGTLVTVSSASTKGPSVFPLAPSSKSTSGGTAALGCLVKDYFPEPVTVSWNSGALTSGVHTFPAVLQSSGLYSLSSVVTVPSSSLGTQTYICNVNHKPSNTKVDKKVEPKSCDKTHTCPPCPAPELLGGPSVFLFPPKPKDTLMISRTPEVTCVVVDVSHEDPEVKFNWYVDGVEVHNAKTKPREEQYNSTYRVVSVLTVLHQDWLNGKEYKCKVSNKALPAPIEKTISKAKGQPREPQVCTLPPSRDELTENQVSLTCLVKGFYPSDIAVEWESNGQPENNYKTTPPVLDSDGSFFLYSWLTVDKSRWQQGNVFSCSVMHEALHNHYTQKSLSLSPG
light: DIQMTQSPSSVSASVGDRVTITCRASQGISSWLAWYQQKPGKAPKLLIYAASSLQSGVPSRFSGSGSGTDFTLTISSLQPEDFATYYCQQGVSFPRTFGGGTKVEIKRTVAAPSVFIFPPSDEQLKSGTASVVCLLNNFYPREAKVQWKVDNALQSGNSQESVTEQDSKDSTYSLSSTLTLSKADYEKHKVYACEVTHQGLSSPVTKSFNRGEC
notes: CLEC12A scFv-Fc, NKG2D A49MI Fab-Fc, human IgG1 Fc; also called AB0237
